# Test results published in US20100291088A1.
# Assays:
# Assay in all cases: cell-based or functional assay
# [1] = biological target: NEM-huIL-18 (human) (UniProt Q14116)
# [2] = biological target: natural human IL-18 (human) (UniProt Q14116)
# [3] = biological target: (4C/A)-huIL-18 (human) (UniProt Q14116)
Binder,"KG-1 Assays (IC50, M) [1]","WBA neutralization potency in vitro (IC50, nM) [2]","KG-1 neutralization potency in vitro (IC50, nM) [3]"
"268 (antibody, V domains shown) VH: ZVQLVESGGGVVQPGRSLRLSCAASGFTFRNYGLHWVRQAPGKGLEWVAVIWYDGSNKYYADSVKGRFTISRDNSKNTLYLQMNSLRAEDTAVYYCARESYYYYGMDVWGQGTTVTVSS VL: EIVMTQSPATLSVSPGERATLSCRASQSFNSNLVWYQQKPGQAPRLLIYGASTRATGIPARFSGSGSGTEFTLTISSLQSEDFAVYYCQQYNNWTWTFGQGTKVEIKR",7e-09 M,,
"Murine anti-human IL-18 mAb (125-2H) (antibody, from another filing, V domains shown) VH: EIQLQQSGPELVKPGASVKVSCKASGYSFTDYFIYWVKQSHGKSLEWIGDIDPYNGDTSYNQKFRDKATLTVDQSSTTAFMHLNSLTSEDSAVYFCARGLRFWGQGTLVTVSA VL: DIQMTQSPSSLSASLGERVSLTCRASQDIGSKLYWLQQEPDGTFKRLIYATSSLDSGVPKRFSGSRSGSDYSLTISSLESEDFVDYYCLQYASSPYTFGGGTKLAIKR",,3 nM,0.2 nM
